{
  "source": "paper PMC4646333",
  "key": {"[1]": {"target": "R117A mutant of ferritin from Pyrococcus furiosus (R117A-PfFtn) (Pyrococcus furiosus) (UniProt Q8U2T8)"}, "[2]": {"target": "wild-type ferritin from Pyrococcus furiosus (WT-PfFtn) (Pyrococcus furiosus) (UniProt Q8U2T8)", "test": "native gel or EMSA; native gel electrophoresis of apo protein; WT-PfFtn 5 μM monomer, R117A-PfFtn 4.3 or 80 μM monomer"}},
  "data": [
    {"substance": "R117A mutant of ferritin from Pyrococcus furiosus (R117A-PfFtn) (from UniProt Q8U2T8 1-174) (natural protein)", "values": [
      {"measurement": "rate of Fe(II) oxidation (Fe(III) formation at 315 nm after addition of two Fe(II) per subunit), R117A-PfFtn against WT-PfFtn", "setting": "[1]", "value": "> 100", "unit": "fold"}
    ]},
    {"substance": "wild-type ferritin from Pyrococcus furiosus (WT-PfFtn) (from UniProt Q8U2T8 1-174) (natural protein)", "values": [
      {"measurement": "stoichiometry N", "setting": "[2]", "value": 24}
    ]}
  ]
}
